System: MS2 coat protein
Test: apparent KD of MS2 coat protein; designed switch direction (-1 OFF switch, 1 ON switch): -1; higher = weaker reporter binding
Procedure, shortened: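 Transcription of designed RNA switches on Illumina chips was done by stalled E. coli RNA polymerase. SNAP-549-labelled MS2 coat protein was then titrated in doubling steps from 0.7 or 1.5 nM to 3 µM, with steps of 0.8–1.5 h at the lowest and 10–20 min at the highest concentration. The per-design median over clusters of curve-fitted normalised fluorescence is reported as apparent KD.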

[1] = input ligand: microRNA oligo, concentration not stated
[2] = Eterna round: R95, input ligand: FMN 200 uM
[3] = Eterna round: R95, input ligand: microRNA oligo, concentration not stated
[4] = Eterna round: R95, input ligand: none

## UUUAAUCAUGUAGGAUAUGCGUGGCGAAGCUAUGCAGAAGGACAUGAGGAUCACCCAUGUUCUAGCGUCUGCGUACAGAUGCUA [JL ENG1 1.36] (Eterna round: R96, puzzle: Exclusion NG 1)
Input ligand: FMN 200 uM
  apparent KD of MS2 coat protein: 334 nM
[1]
  apparent KD of MS2 coat protein: 33 nM
Input ligand: none
  apparent KD of MS2 coat protein: 47 nM

## UUUAAUCGUGACAUGGGUGACAUGAGGAUCACCCAUGUCACAAGCUUUUUGCUCGUCUUAUAAUUAACCCAUGUCAC [LRO Sensor-off var1-11 mod of Stov1-13-A1 by Brourd] (Eterna round: R97, puzzle: Sensor, turn-off variant 1)
Input ligand: FMN 200 uM
  apparent KD of MS2 coat protein: 15.1 nM
Input ligand: none
  apparent KD of MS2 coat protein: 15.6 nM

## UUUAAUUUUUUUUUUUUACAAGCUUUUUGCUCGUCUUAUACAUGAGGAUCACCCAUGUAAAUGAGGGAUAAAUUAUC [JMF 38] (puzzle: Sensor v3, turn-off variant 2)
[2]
  apparent KD of MS2 coat protein: 15.4 nM
[3]
  apparent KD of MS2 coat protein: 21.3 nM
[4]
  apparent KD of MS2 coat protein: 15.7 nM

## UUUAAUUUUUUUUUUUUACAAGCUUUUUGCUCGUCUUAUACAUGAGGAUCACCCAUGUAGGUGAGGAGUAAAUUAUC [JMF 62] (puzzle: Sensor v3, turn-off variant 2)
[2]
  apparent KD of MS2 coat protein: 15.5 nM
[3]
  apparent KD of MS2 coat protein: 111 nM
[4]
  apparent KD of MS2 coat protein: 14.8 nM

## UUUAAUUUUUUUUUUUUACAAGCUUUUUGCUCGUCUUAUACAUGAGGAUCACCCAUGUAGGUGGGAGAUAAAUUAUC [JMF 23] (puzzle: Sensor v3, turn-off variant 2)
[2]
  apparent KD of MS2 coat protein: 87.8 nM
[3]
  apparent KD of MS2 coat protein: 392 nM
[4]
  apparent KD of MS2 coat protein: 131 nM

## UUUAAUUUUUUUUUUUUACAAGCUUUUUGCUCGUCUUAUACAUGAGGAUCACCCAUGUGGAUGGAAGAUAAAUUAUC [JMF 9] (puzzle: Sensor v3, turn-off variant 2)
[2]
  apparent KD of MS2 coat protein: 16.2 nM
[3]
  apparent KD of MS2 coat protein: 18.6 nM
[4]
  apparent KD of MS2 coat protein: 16.5 nM

## UUUAAUUUUUUUUUUUUACAAGCUUUUUGCUCGUCUUAUACAUGAGGAUCACCCAUGUGGGUAAGAGAUAAAUUAUC [JMF 13] (puzzle: Sensor v3, turn-off variant 2)
[2]
  apparent KD of MS2 coat protein: 24.9 nM
[3]
  apparent KD of MS2 coat protein: 36.3 nM
[4]
  apparent KD of MS2 coat protein: 27.8 nM

## UUUAAUUUUUUUUUUUUACAAGCUUUUUGCUCGUCUUAUACAUGAGGAUCACCCAUGUGGGUAGAAAGUAAAUUAUC [JMF 46] (puzzle: Sensor v3, turn-off variant 2)
[2]
  apparent KD of MS2 coat protein: 13.7 nM
[3]
  apparent KD of MS2 coat protein: 43.6 nM
[4]
  apparent KD of MS2 coat protein: 15.4 nM

## UUUAAUUUUUUUUUUUUACAAGCUUUUUGCUCGUCUUAUACAUGAGGAUCACCCAUGUGGGUAGAGAGUAAAUUAUC [JMF 59] (Eterna round: R96, puzzle: Sensor v3, turn-off variant 2)
Input ligand: FMN 200 uM
  apparent KD of MS2 coat protein: 21.1 nM
[1]
  apparent KD of MS2 coat protein: 102 nM
Input ligand: none
  apparent KD of MS2 coat protein: 19.3 nM

## UUUAAUUUUUUUUUUUUACAAGCUUUUUGCUCGUCUUAUACAUGAGGAUCACCCAUGUGGGUAGAGAGUAAAUUAUC [JMF 59] (puzzle: Sensor v3, turn-off variant 2)
[2]
  apparent KD of MS2 coat protein: 16.7 nM
[3]
  apparent KD of MS2 coat protein: 80.6 nM
[4]
  apparent KD of MS2 coat protein: 16.1 nM

## UUUAAUUUUUUUUUUUUACAAGCUUUUUGCUCGUCUUAUACAUGAGGAUCACCCAUGUGGGUGAGGGAUAAAUUAUC [JMF 42] (puzzle: Sensor v3, turn-off variant 2)
[2]
  apparent KD of MS2 coat protein: 16.3 nM
[3]
  apparent KD of MS2 coat protein: 27.2 nM
[4]
  apparent KD of MS2 coat protein: 574 nM

## UUUAAUUUUUUUUUUUUACAAGCUUUUUGCUCGUCUUAUACAUGAGGAUCACCCAUGUGGGUGGAGAGUAAAUUAUC [JMF 60] (puzzle: Sensor v3, turn-off variant 2)
[2]
  apparent KD of MS2 coat protein: 45.4 nM
[3]
  apparent KD of MS2 coat protein: 47.1 nM
[4]
  apparent KD of MS2 coat protein: 56 nM

## UUUAAUUUUUUUUUUUUACAAGCUUUUUGCUCGUCUUAUACAUGAGGAUCACCCAUGUGGGUGGGAGGUAAAUUAUC [JMF 78] (puzzle: Sensor v3, turn-off variant 2)
[2]
  apparent KD of MS2 coat protein: 63.7 nM
[3]
  apparent KD of MS2 coat protein: 26.1 nM
[4]
  apparent KD of MS2 coat protein: 82.6 nM

## UUUACAAGCUAUAGAUCCCACAUGAGGAUCACCCAUGUUCCUGGCCGUGAGGCUAGGUAAACUAUUGCUCGUCUUAU [JL TOV1 3.66] (Eterna round: R97, puzzle: Sensor, turn-off variant 1)
Input ligand: FMN 200 uM
  apparent KD of MS2 coat protein: 252 nM
Input ligand: none
  apparent KD of MS2 coat protein: 294 nM

## UUUACAAGCUAUAGAUCCCACAUGAGGAUCACCCAUGUUGCUGCCAACGGUAGCUUUUUAUGGUUUGCUCGUCUUAU [JL TOV1 3.35] (Eterna round: R97, puzzle: Sensor, turn-off variant 1)
Input ligand: FMN 200 uM
  apparent KD of MS2 coat protein: 443 nM
Input ligand: none
  apparent KD of MS2 coat protein: 1860 nM

## UUUACAAGCUUUAGAUCCCACAUGAGGAUCACCCAUGUUGCUGCCGUGAGGUAGCUUUUAACUAAUGCUCGUCUUAU [JL TOV1 3.41] (Eterna round: R97, puzzle: Sensor, turn-off variant 1)
Input ligand: FMN 200 uM
  apparent KD of MS2 coat protein: 103 nM
Input ligand: none
  apparent KD of MS2 coat protein: 124 nM

## UUUACCAGAGGAUAUGCGAAUAAAUAAAACUUUUUUUUUUAACAUGAGGAUCACCCAUGUAGAAGGCUGCAUUU [Ex2 #29] (Eterna round: R97, puzzle: Exclusion 2)
Input ligand: FMN 200 uM
  apparent KD of MS2 coat protein: 25.5 nM
Input ligand: none
  apparent KD of MS2 coat protein: 28.2 nM

## UUUAUACAUGAGGAUCACCCAUGUGAGGAUAUGCUUUAUUAUUAUUAUUAUUAUUAUUGCAGAAGGUACAUUAU [LRO-Excl01-14] (Eterna round: R97, puzzle: Exclusion 1)
Input ligand: FMN 200 uM
  apparent KD of MS2 coat protein: 35.7 nM
Input ligand: none
  apparent KD of MS2 coat protein: 37.7 nM

## UUUAUAGUAGGAUAUACAUGAGGAUCACCCAUGUAGUAGGGAAGACCUUGGUGGGAACGUAGAAGGACUUGGAG [Eternabot (L2) Solution 44] (Eterna round: R97, puzzle: Exclusion 3)
Input ligand: FMN 200 uM
  apparent KD of MS2 coat protein: 73.3 nM
Input ligand: none
  apparent KD of MS2 coat protein: 74.2 nM

## UUUAUAUAGUAAGGAUAUGUAUUAAUUUUAUCAACAGAAGGUACUGACAUGAGGAUCACCCAUGUUUUAGUGUGGGCAUGUAGU [JMF's solution 93] (Eterna round: R96, puzzle: Exclusion NG 1)
Input ligand: FMN 200 uM
  apparent KD of MS2 coat protein: 543 nM
[1]
  apparent KD of MS2 coat protein: 493 nM
Input ligand: none
  apparent KD of MS2 coat protein: 536 nM

## UUUAUGUCAGGAUAUACAUGAGGAUCACCCAUGUAUAUCUUAAAGUAUACAUGGGAAUGUAGAAGGGACGUCCU [LRO-Excl05-29-mod of Pseudoloop5 by Omei] (Eterna round: R97, puzzle: Exclusion 3)
Input ligand: FMN 200 uM
  apparent KD of MS2 coat protein: 31.3 nM
Input ligand: none
  apparent KD of MS2 coat protein: 30.2 nM

## UUUAUGUGAGGAUAUGCGGGCGGGCGUGAAAAUGUUUGUUUGUAGAAGGUACAUGAGGAUCACCCAUGUAGUGG [-22, -21.6 kcal, 24% A] (Eterna round: R97, puzzle: Exclusion 4)
Input ligand: FMN 200 uM
  apparent KD of MS2 coat protein: 180 nM
Input ligand: none
  apparent KD of MS2 coat protein: 57.2 nM

Source: the supplement of paper PMC9170038
